Measured values reported in the supplement of paper PMC9170038.

Tested on: MS2 coat protein
Experiment: apparent KD of MS2 coat protein; designed switch direction (-1 OFF switch, 1 ON switch): -1; higher = weaker reporter binding
How it was run: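 Transcription of designed RNA switches on Illumina chips was done by stalled E. coli RNA polymerase. SNAP-549-labelled MS2 coat protein was then titrated in doubling steps from 0.7 or 1.5 nM to 3 µM, with steps of 0.8–1.5 h at the lowest and 10–20 min at the highest concentration. The per-design median over clusters of curve-fitted normalised fluorescence is reported as apparent KD.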

[1] = input ligand: microRNA oligo, concentration not stated
[2] = Eterna round: R95, input ligand: FMN 200 uM
[3] = Eterna round: R95, input ligand: microRNA oligo, concentration not stated
[4] = Eterna round: R95, input ligand: none

Sequence	apparent KD of MS2 coat protein [1] [µM]	apparent KD of MS2 coat protein (input ligand: FMN 200 uM) [µM]	apparent KD of MS2 coat protein (input ligand: none) [µM]	apparent KD of MS2 coat protein [2] [µM]	apparent KD of MS2 coat protein [3] [µM]	apparent KD of MS2 coat protein [4] [µM]
UAAGUUUAGGUAGGAUAUACUUUCAAUUUCUCUUUCCUUACAUGAGGAUCACCCAUGUUUACAUUGUAGAAGGACCACUAUGUU [JR_ExcNG2_Sub054] (Eterna round: R96, puzzle: Exclusion NG 2)	0.0205					
UAAGUUUAGGUAGGAUAUACUUUUAAUUUCUCUUUCCUUACAUGAGGAUCACCCAUGUUUACAUUGUAGAAGGACCACUAUGUU [JR_ExcNG2_Sub053] (Eterna round: R96, puzzle: Exclusion NG 2)	0.0183	0.0178	0.0264			
UAAUAAUAGCAAGGAUAUGAUUAUUAUAAUAUAUCAGAAGGUGCACAUGAGGAUCACCCAUGUUUUAUAAUUUGUAAUUUAAAU [2nd something] (Eterna round: R96, puzzle: Exclusion NG 1)	0.0404					
UAAUAAUAGUCAGGAUAUAGUUAUUAUAAUAUACUAGAAGGGACACAUGAGGAUCACCCAUGUUUUAUAAUUUGUAAUUUAAAU [5th something] (Eterna round: R96, puzzle: Exclusion NG 1)	0.0162					
UAAUACAAGUAAGGAUUCUACAUGAGGAUCACCCAUGUGCUCGUCUUAUAAAGUACUAUCACGAAAGUGAUAGUACA [Mat - Sensor v3 - turn-off var 1 - Eli Mod - D99] (puzzle: Sensor v3, turn-off variant 1)				0.0235	0.148	0.0264
UAAUACGAUGUCAGGAUAUGUAAGACACUUGUAACACAGAAGGGACAUGAGGAUCACCCAUGUAAGGGCUCUUC [Rimala] (puzzle: Brourd's mod of Exclusion 4)				0.0514	0.0204	0.0226
UAAUAGUAUGUUAGGAUAUGCUGGUCCUUGGAUCAGCAGAAGGAACAUGAGGAUCACCCAUGUAGAAUAUUUUA [Mod of JL 18 - Jieux - Brourd's mod of Exclusion 4] (Eterna round: R97, puzzle: Brourd's mod of Exclusion 4)		0.0568	0.0181			
UAAUAGUCAGGAUAUACAUGAGGAUCACCCAUGUAGAAAUGAACCUGGGUUCUCCUAGGUAGAAGGGACAAAAG [Geerqu] (puzzle: Exclusion 3)				0.0287	0.0227	0.0241
UAAUAUCUGUAGGAUAUCAGUGGAAAACACGUAUGAGAAGGGCAGACAUGAGGAUCACCCAUGUAUAGGGUCCG [BotMod 7 - Jieux - Exclusion 6] (Eterna round: R97, puzzle: Exclusion 6)		0.0619	0.0209			
UAAUAUCUGUAGGAUAUCAGUGGAGCACACGUAUGAGAAGGGCAGACAUGAGGAUCACCCAUGUAUAGGGUCCG [BotMod 5 - Jieux - Exclusion 6] (Eterna round: R97, puzzle: Exclusion 6)		0.0387	0.0293			
UAAUGUGCGAGAGGAUAUCGUGUACAAAGUACACGAGAAGGCUUCACAUGAGGAUCACCCAUGUACCGAGGUGAAACACCUUGA [Omei Exc(NG)1 B] (Eterna round: R96, puzzle: Exclusion NG 1)	0.11	0.95	0.383			
UAAUUAAGUGUGAGGAUAUGCUGGUCCUUGGAUCAGCAGAAGGCACAUGAGGAUCACCCAUGUAAUAUAUUUAU [JL bmx4 3.11] (puzzle: Brourd's mod of Exclusion 4)					0.0819	
UAAUUAAUUAAUUAAUAAUACAUGAGGAUCACCCAUGUAGAUCCUACAUACAAGCUAAGUAGCUCGUCUUAUAAUUA [Stov1/2-A1] (Eterna round: R97, puzzle: Sensor, turn-off variant 1)		0.364	0.353			
UAAUUCAGAGGAUAUGCGCAUAGAUAAGACUUUUUUUUUUAACAUGAGGAUCACCCAUGUAGAAGGCUGUAAUU [Ex2 #54] (Eterna round: R97, puzzle: Exclusion 2)		0.024	0.0231			
UAAUUGAUUAAUAGAUUAUACAUGAGGAUCACCCAUGUAGGUCCUACGUGCCAUUUAAGUAGCUCGUCUUAUUCCCA [Sensor-V1 #67] (Eterna round: R97, puzzle: Sensor, turn-off variant 1)		0.0402	0.0456			
UAAUUGUGAGGAUAUCAGGUGUGCUAGCGUACUGGUACAUCUGAGAAGGCACAUGAGGAUCACCCAUGUUCCUU [Mat - Exclusion 4 - Mod of JL - D47] (puzzle: Exclusion 4)					0.0136	

Sequence	apparent KD of MS2 coat protein [1] [µM]	apparent KD of MS2 coat protein (input ligand: FMN 200 uM) [µM]	apparent KD of MS2 coat protein (input ligand: none) [µM]	apparent KD of MS2 coat protein [2] [µM]	apparent KD of MS2 coat protein [3] [µM]	apparent KD of MS2 coat protein [4] [µM]
UAAUUGUGAGGAUAUUCGUUUUUCACGGAGACGUGAAGAACGGAGAAGGCACAUGAGGAUCACCCAUGUUCCUU [Mat - Exclusion 4 - JL Mod - D15] (Eterna round: R97, puzzle: Exclusion 4)		0.0893	0.0195			
UACAAGCAAGGAUAUACAUGAGGAUCACCCAUGUCACUCCUAGCGCGGGUUUUGAAAUGUAGAAGGUGCACCUG [EX3 B.14] (Eterna round: R97, puzzle: Exclusion 3)		0.0173	0.0205			
UACAAUAAGGAGGAUAUCGUAUCGGAAACGAUACGAGAAGGCUUAACAUGAGGAUCACCCAUGUUCUUCAAUAU [Mat - Exclusion 6 - Eli Mod - D97] (puzzle: Exclusion 6)				0.0187	0.0152	0.0156
UACACUGCAUGAGGAUCAAACAUGAGGAUCACCCAUGUAUAGCAGGCUUUUUGCACGUCUUAUAAUUAUGUAGUGUA [Electric Eye 15 - Jieux - Sensor, turn-off variant 1] (Eterna round: R97, puzzle: Sensor, turn-off variant 1)		0.0142	0.0144			
UACACUGCAUGAGGAUCAAACAUGAGGAUCACCCAUGUAUUGCAAGCUUUUUGCACGUCUUAUAAUUAUGUAGUGUA [Electric Eye 20 - Jieux - Sensor, turn-off variant 1] (Eterna round: R97, puzzle: Sensor, turn-off variant 1)		0.0172	0.0172			
UACAGUCAUCCUUGUUGUUACAUGAGGAUCACCCAUGUUAGUAUAGUUAAGUUAUGUGAGUUUGUUGUUCGUUUUAU [JR_STOV1_v2_Sub077] (Eterna round: R97, puzzle: Sensor, turn-off variant 1)		0.149	0.169			
UACAGUCGAGGAUAUACGAUCGUGCUUCGGCACGUAAGAUCACAUGAGGAUCACCCAUGUAGAAGGCGACUGUA [Mod 9 - Jieux - Exclusion 2] (Eterna round: R97, puzzle: Exclusion 2)		0.226	0.0351			
UACAUGAGGAUCACCCAUGUUUUGUCGUGUAUGGUAUUUAUCUAGGAUAUCAAUCUAUGUAUUUAUGAGAAGGAGAAUAUUAAU [JMF's solution 51] (Eterna round: R96, puzzle: Exclusion NG 3)	0.031					
UACAUGAGGAUCACCCAUGUUUUGUCGUGUAUGGUAUUUAUCUAGGAUAUCAAUGUAAUUAUUUAUGAGAAGGAGAAUAUUAAU [JMF's solution 40] (Eterna round: R96, puzzle: Exclusion NG 3)	0.0361	0.0412	0.0447			
UACAUGAGGAUCACCCAUGUUUUGUCGUGUAUGGUAUUUAUCUAGGAUAUCAAUGUGUUUAUUUAUGAGAAGGAGAAUAUUAAU [JMF's solution 39] (Eterna round: R96, puzzle: Exclusion NG 3)	0.0318	0.04	0.0354			
UACAUGAGGAUCACCCAUGUUUUGUCGUGUAUGGUAUUUAUCUAGGAUAUCAAUUAAUUUAUUUAUGAGAAGGAGAAUAUUAAU [JMF's solution 14] (Eterna round: R96, puzzle: Exclusion NG 3)	0.0281	0.0403	0.0383			
UACAUGAGGAUCACCCAUGUUUUGUCGUGUAUGGUAUUUAUCUAGGAUAUCAAUUGAUUUAUGUAUGAGAAGGAGAAUAUUAAU [JMF's solution 63] (Eterna round: R96, puzzle: Exclusion NG 3)	0.0349	0.0411	0.0348			
UACAUGAGGAUCACCCAUGUUUUGUCGUGUAUGGUAUUUAUCUAGGAUAUCAAUUUAUUUAUGUAUGAGAAGGAGAAUAUUAAU [JMF's solution 23] (Eterna round: R96, puzzle: Exclusion NG 3)	0.0298	0.0408	0.0447			
UACAUGAGGAUCACCCAUGUUUUGUCGUGUAUGGUAUUUAUCUAGGAUAUCAAUUUGUUUAGUUAUGAGAAGGAGAAUAUUAAU [JMF's solution 71] (Eterna round: R96, puzzle: Exclusion NG 3)	0.0333	0.0359	0.0376			
UACAUGAGGAUCACCCAUGUUUUGUCGUGUAUGGUAUUUAUCUAGGAUAUCAAUUUGUUUAUGUAUGAGAAGGAGAAUAUUAAU [JMF's solution 72] (Eterna round: R96, puzzle: Exclusion NG 3)	0.0284	0.0329	0.0356			
UACAUGAGGAUCACCCAUGUUUUGUCGUGUAUGGUAUUUAUCUAGGAUAUCACUUUAUUUAUUUAUGAGAAGGAGAAUAUUAAU [JMF's solution 8] (Eterna round: R96, puzzle: Exclusion NG 3)	0.0271	0.0342	0.0379			
